Consider two molecules from US20160113911A1, “METHODS AND COMPOSITIONS FOR THE TREATMENT OF CANCER” (THE GENERAL HOSPITAL CORPORATION, priority 2013, published 2016).

In one series the test system is H3K36me3. Nature of the series: H3K36 demethylase activity of KDM4A variants in transfected cells (immunofluorescence). The arrangement: key: + indicates active; − indicates inactive; +/− indicates partial acitivty. It counts as cell-based. The note with it: KDM4A mutations. On the procedure: The indicated NHF-tagged KDM4A deletion constructs were transfected into RPE cells grown on coverslips in 10 cm dishes using X-tremeGENE 9™ DNA transfection reagent (Roche). H3K36me3 and subcellular localization were assayed by examining transfected cells (positive for HA staining; HA.11 Covance) following fixation in 3.7% PFA in PBS (Whetstine et al., 2006).
All immunofluorescence experiments were performed as in (Black et al., 2013). For the localization experiment a minimum of 50 cells were blinded and scored. For the catalytic activity, cells overexpressing a high level of KDM4A WT or SNP-A482 were analyzed in a non quantitative manner.

Another series deals with H3K9me3. Nature of the series: H3K9 demethylase activity of KDM4 variants in transfected cells. The class given is cell-based. More on the design: key: + indicates active; − indicates inactive; +/− indicates partial acitivty. The note with it: KDM4A mutations.

B1: 2A-R218W: KDM4A mutation (protein)
chain: MASESETLNPSARIMTFYPTMEEFRNFSRYIAYIESQGAHRAGLAKVVPPKEWKPRASYDDIDDLVIPAPIQQLVTGQSGLFTQYNIQKKAMTVREFRKIANSDKYCTPRYSEFEELERKYWKNLTFNPPIYGADVNGTLYEKHVDEWNIGRLRTILDLVEKESGITIEGVNTPYLYFGMWKTSFAWHTEDMDLYSINYLHFGEPKSWYSVPPEHGKWLERLAKGFFPGSAQSCEAFLRHKMTLISPLMLKKYGIPFDKVTQEAGEFMITFPYGYHAGFNHGFNCAESTNFATRRWIEYGKQAVLCSCRKDMVKISMDVFVRKFQPERYKLWKAGKDNTVIDHTLPTPEAAEFLKESELPPRAGNEEECPEEDMEGVEDGEEGDLKTSLAKHRIGTKRHRVCLEIPQEVSQSELFPKEDLSSEQYEMTECPAALAPVRPTHSSVRQVEDGLTFPDYSDSTEVKFEELKNVKLEEEDEEEEQAAAALDLSVNPASVGGRLVFSGSKKKSSSSLGSGSSRDSISSDSETSEPLSCRAQGQTGVLTVHSYAKGDGRVTVGEPCTRKKGSAARSFSERELAEVADEYMFSLEENKKSKGRRQPLSKLPRHHPLVLQECVSDDETSEQLTPEEEAEETEAWAKPLSQLWQNRPPNFEAEKEFNETMAQQAPHCAVCMIFQTYHQVEFGGFNQNCGNASDLAPQKQRTKPLIPEMCFTSTGCSTDINLSTPYLEEDGTSILVSCKKCSVRVHASCYGVPPAKASEDWMCSRCSANALEEDCCLCSLRGGALQRANDDRWVHVSCAVAILEARFVNIAERSPVDVSKIPLPRFKLKCIFCKKRRKRTAGCCVQCSHGRCPTAFHVSCAQAAGVMMQPDDWPFVVFITCFRHKIPNLERAKGALQSITAGQKVISKHKNGRFYQCEVVRLTTETFYEVNFDDGSFSDNLYPEDIVSQDCLQFGPPAEGEVVQVRWTDGQVYGAKFVASHPIQMYQVEFEDGSQLVVKRDDVYTLDEELPKRVKSRLSVASDMRFNEIFTEKEVKQEKKRQRVINSRYREDYIEPALYRAIME
With B1, the “H3k36 Demethylase Activity” value in the series on H3K36me3 is on record as “−”. In addition, the “H3k9 Demethylase Activity” value in the series with H3K9me3 is on record as “+”.

B2: 2A-G225C: KDM4A mutation (protein)
chain: MASESETLNPSARIMTFYPTMEEFRNFSRYIAYIESQGAHRAGLAKVVPPKEWKPRASYDDIDDLVIPAPIQQLVTGQSGLFTQYNIQKKAMTVREFRKIANSDKYCTPRYSEFEELERKYWKNLTFNPPIYGADVNGTLYEKHVDEWNIGRLRTILDLVEKESGITIEGVNTPYLYFGMWKTSFAWHTEDMDLYSINYLHFGEPKSWYSVPPEHGKRLERLAKCFFPGSAQSCEAFLRHKMTLISPLMLKKYGIPFDKVTQEAGEFMITFPYGYHAGFNHGFNCAESTNFATRRWIEYGKQAVLCSCRKDMVKISMDVFVRKFQPERYKLWKAGKDNTVIDHTLPTPEAAEFLKESELPPRAGNEEECPEEDMEGVEDGEEGDLKTSLAKHRIGTKRHRVCLEIPQEVSQSELFPKEDLSSEQYEMTECPAALAPVRPTHSSVRQVEDGLTFPDYSDSTEVKFEELKNVKLEEEDEEEEQAAAALDLSVNPASVGGRLVFSGSKKKSSSSLGSGSSRDSISSDSETSEPLSCRAQGQTGVLTVHSYAKGDGRVTVGEPCTRKKGSAARSFSERELAEVADEYMFSLEENKKSKGRRQPLSKLPRHHPLVLQECVSDDETSEQLTPEEEAEETEAWAKPLSQLWQNRPPNFEAEKEFNETMAQQAPHCAVCMIFQTYHQVEFGGFNQNCGNASDLAPQKQRTKPLIPEMCFTSTGCSTDINLSTPYLEEDGTSILVSCKKCSVRVHASCYGVPPAKASEDWMCSRCSANALEEDCCLCSLRGGALQRANDDRWVHVSCAVAILEARFVNIAERSPVDVSKIPLPRFKLKCIFCKKRRKRTAGCCVQCSHGRCPTAFHVSCAQAAGVMMQPDDWPFVVFITCFRHKIPNLERAKGALQSITAGQKVISKHKNGRFYQCEVVRLTTETFYEVNFDDGSFSDNLYPEDIVSQDCLQFGPPAEGEVVQVRWTDGQVYGAKFVASHPIQMYQVEFEDGSQLVVKRDDVYTLDEELPKRVKSRLSVASDMRFNEIFTEKEVKQEKKRQRVINSRYREDYIEPALYRAIME
For B2, the “H3k36 Demethylase Activity” value in the series on H3K36me3 is reported as “+/−”. In the series with H3K9me3, the “H3k9 Demethylase Activity” value was “+”.
